Article PMC5820116 (SLAS discovery : advancing life sciences R & D, 2017)

Substrate: Nc1ncnc2c1ncn2[C@@H]1O[C@H](COP(=O)(O)OP(=O)(O)OP(=O)(O)O)[C@@H](O)[C@H]1O
Assay: ATP:PPi exchange steady-state kinetics
Format: biochemical, Pseudomonas aeruginosa
Conditions: Mg2+ active region of the catalytic domain formed by the three structural motifs

B1: Aspartyl-tRNA synthetase (AspRS) (Pseudomonas aeruginosa PAO1) (protein)
chain: MMRSHYCGQLNESLDGQEVTLCGWVHRRRDHGGVIFLDVRDREGLAQVVFDPDRAETFAKADRVRSEFVVKITGKVRLRPEGARNPNMASGSIEVLGYELEVLNQAETPPFPLDEYSDVGEETRLRYRFIDLRRPEMAAKLKLRARITSSIRRYLDDNGFLDVETPILGRPTPEGARDYLVPSRTYPGHFFALPQSPQLFKQLLMVAGFDRYYQIAKCFRDEDLRADRQPEFTQIDIETSFLDESDIIGITEKMVRQLFKEVLDVEFDEFPHMPFEEAMRRYGSDKPDLRIPLELVDVADQLKEVEFKVFSGPANDPKGRVAALRVPGAASMPRSQIDDYTKFVGIYGAKGLAYIKVNERAKGVEGLQSPIVKFIPEANLNVILDRVGAVDGDIVFFGADKAKIVCDALGALRIKVGHDLKLLTREWAPMWVVDFPMFEENDDGSLSALHHPFTSPKCTPAELEANPGAALSRAYDMVLNGTELGGGSIRIHDKSMQQAVFRVLGIDEAEQEEKFGFLLDALKYGAPPHGGLAFGLDRLVMLMTGASSIREVIAFPKTQSAGDVMTQAPGSVDGKALRELHIRLREQPKAE
Q: Which Km does the source give for B1 here?
A: 495 µM
